We go through two molecules from patent US20240251767A1 (LEVERAGEN, published 2024).

The target of assay [1] is T1, Spike protein of the COVID-19 Spike-ACE2 Binding Assay Kit (Raybiotech) (SARS-CoV2, UniProt P0DTC2 319-541).
In assay [2] the target is T1, Spike protein of the COVID-19 …. The source holds these as a separate data set.

Like-named read-outs stand apart in the source and are kept apart here.

B1: M2S521_378 Nb-human Fc fusion (Fc fusion, not shown: a dimerising Fc or GST)
VH: EVQLQQSGPELVKPGASVKISCKASGYTFTDYYMKWVKQSHGKSLEWIGDINPKNGGTNYNQKFKDKATLTVDKSSSTAYMELRSLTSEDSAVYYCARLEDGYYGYAIDYWSQGTSVTVSS
notes: also called LVGN-S231378; LVGN-S521378
As usually defined, the IC50 is the concentration at which inhibition is half-maximal. Consider B1, for which, in assay [1], the IC50 is 3.3 nM.

B2: MS329_5 Nb-human Fc fusion (Fc fusion, not shown: a dimerising Fc or GST)
VH: EVQLQQSGPELVKPGASVKMSCKASGYTFTDYYIKWEKQSHGKSLEWIGDINPKNGETFYNQQFKGKATLTVDKSSSTAYMQLNSLTSEDSAVYYCARKEYGDYGYAVDYWGQGTSVTVSS
notes: also called LVGN-S3205; LVGN-53205
With B2, the results for the concentration for half-maximal inhibition (IC50) in assay [2] and in assay [1] were 0.397 nM and 0.4 nM, respectively.
